Molecular target: L-ferritin-M6A (mouse L-ferritin with the Mms6 iron-binding segment M6A at its C-terminus behind a glycine spacer), with the N-terminal 6-His tag (mouse | Magnetospirillum magneticum AMB-1) (UniProt Q2W8R5)
Assay: SEC; HiLoad 26/60 Superdex 200; 20 mM Bis-Tris pH 5.8, 500 mM KCl, 10% glycerol; oligomer judged by elution volume

Question: How did the stoichiometry N turn out when “L-ferritin-M6A (mouse L-ferritin with the Mms6 iron-binding segment M6A at its C-terminus behind a glycine spacer), with the N-terminal 6-His tag (from UniProt Q2W8R5 116-127)” was run?
Answer: 24
